Experimental data from PMC3152347.
Where two headings read alike, the source gives them in different places.

Key:
[1] = target: T1, His-HSF1 (human, UniProt Q00613 1-529); assay: EMSA
[2] = target: T2, endogenous HSF1 of CEM-GFP cells (human (endogenous in CEM-GFP)), Q00613; assay: cross-linking; conditions: remark: other sources report otherwise
T2 chain: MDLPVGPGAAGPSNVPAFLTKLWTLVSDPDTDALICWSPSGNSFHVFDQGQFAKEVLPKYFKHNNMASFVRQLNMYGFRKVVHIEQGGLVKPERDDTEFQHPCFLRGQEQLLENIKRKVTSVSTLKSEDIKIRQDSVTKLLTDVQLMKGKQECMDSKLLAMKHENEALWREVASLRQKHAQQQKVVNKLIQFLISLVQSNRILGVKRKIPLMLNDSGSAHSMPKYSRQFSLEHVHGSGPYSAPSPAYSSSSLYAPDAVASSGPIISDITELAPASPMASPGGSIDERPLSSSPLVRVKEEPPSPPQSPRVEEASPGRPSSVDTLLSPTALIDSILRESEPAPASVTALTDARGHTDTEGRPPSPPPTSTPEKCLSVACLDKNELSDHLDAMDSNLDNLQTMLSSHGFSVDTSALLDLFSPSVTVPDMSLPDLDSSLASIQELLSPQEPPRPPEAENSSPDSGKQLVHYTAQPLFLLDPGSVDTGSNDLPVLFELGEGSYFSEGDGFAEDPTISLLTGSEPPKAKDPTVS

[3] = target: T1, His-HSF1; assay: EMSA; remark: listed apart in the source

Binder | binding result [1] | further results
P3 (1st and 2nd Sp1 site) (dsDNA) DNA 1: TGGGCGGGACTGGGGAGTGGCG DNA 2: CGCCACTCCCCAGTCCCGCCCA | no binding | –
P1 (both NF-kB sites of LTR) (dsDNA) DNA 1: GGGACTTTCCGCTGGGGACTTTCC DNA 2: GGAAAGTCCCCAGCGGAAAGTCCC | no binding | –
endogenous HSF1 of CEM-GFP cells, Q00613 1-529 (natural protein) MDLPVGPGAAGPSNVPAFLTKLWTLVSDPDTDALICWSPSGNSFHVFDQGQFAKEVLPKYFKHNNMASFVRQLNMYGFRKVVHIEQGGLVKPERDDTEFQHPCFLRGQEQLLENIKRKVTSVSTLKSEDIKIRQDSVTKLLTDVQLMKGKQECMDSKLLAMKHENEALWREVASLRQKHAQQQKVVNKLIQFLISLVQSNRILGVKRKIPLMLNDSGSAHSMPKYSRQFSLEHVHGSGPYSAPSPAYSSSSLYAPDAVASSGPIISDITELAPASPMASPGGSIDERPLSSSPLVRVKEEPPSPPQSPRVEEASPGRPSSVDTLLSPTALIDSILRESEPAPASVTALTDARGHTDTEGRPPSPPPTSTPEKCLSVACLDKNELSDHLDAMDSNLDNLQTMLSSHGFSVDTSALLDLFSPSVTVPDMSLPDLDSSLASIQELLSPQEPPRPPEAENSSPDSGKQLVHYTAQPLFLLDPGSVDTGSNDLPVLFELGEGSYFSEGDGFAEDPTISLLTGSEPPKAKDPTVS | – | stoichiometry N [2]: 3
P4 (2nd and 3rd Sp1 site) (dsDNA) DNA 1: GGGAGGTGTGGCCTGGGCGGGAC DNA 2: GTCCCGCCCAGGCCACACCTCCC | no binding | –
P2 (NF-kB and 3rd Sp1 site, LTR -91 to -69) (dsDNA) DNA 1: GGGACTTTCCAGGGAGGTGTGGC DNA 2: GCCACACCTCCCTGGAAAGTCCC | – | binding result [3]: binds
